Reference: US10005846 (LIFEARC, dated 2018)
Changes are numbered by the printed parent chain.

T1: human transglutaminase type 2 (TG2) (human, UniProt P21980 1-687)
T1 construct: Recombinant full-length human TG2 (Zedira; cat; T002 in the Biacore work); Also used here for the endogenous TG2 of HepG2 lysate and HK-2 cells; also called hTG2; rhTG2
T1 sequence: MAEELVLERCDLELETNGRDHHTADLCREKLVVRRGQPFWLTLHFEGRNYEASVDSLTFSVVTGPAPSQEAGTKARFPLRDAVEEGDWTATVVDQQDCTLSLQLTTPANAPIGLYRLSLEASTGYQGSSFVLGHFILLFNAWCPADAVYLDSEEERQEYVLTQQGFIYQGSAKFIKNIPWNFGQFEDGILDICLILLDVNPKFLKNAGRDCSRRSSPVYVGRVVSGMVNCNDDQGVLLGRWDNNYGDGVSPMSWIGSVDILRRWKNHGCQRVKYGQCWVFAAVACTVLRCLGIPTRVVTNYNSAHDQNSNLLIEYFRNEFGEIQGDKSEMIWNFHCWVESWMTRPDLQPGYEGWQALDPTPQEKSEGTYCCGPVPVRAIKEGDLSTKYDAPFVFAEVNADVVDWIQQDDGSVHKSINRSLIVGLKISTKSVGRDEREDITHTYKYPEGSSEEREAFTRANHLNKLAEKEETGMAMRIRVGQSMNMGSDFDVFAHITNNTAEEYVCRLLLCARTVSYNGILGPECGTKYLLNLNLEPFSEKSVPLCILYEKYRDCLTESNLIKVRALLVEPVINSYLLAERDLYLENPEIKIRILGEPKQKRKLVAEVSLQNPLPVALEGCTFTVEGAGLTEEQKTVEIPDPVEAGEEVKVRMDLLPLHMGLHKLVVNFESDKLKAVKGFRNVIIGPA

T2: cynomolgus monkey TG2 (cynomolgus monkey, UniProt A0A2K5VXI8 1-687)
T2 construct: Bought recombinant protein; also called cynomogulus monkey TG2; cyano TG2
T2 sequence: T1 sequence with E4D, Q157R, N177S, H413S, I421T, Y528H, V542I

B1: cBB001 chimeric antibody (murine BB7 variable regions) (antibody, human IgG1, V domains shown)
VH: AVQLVESGGGLVKPGGSLKLSCAASGIIFSSSAMSWVRQTPEKRLEWVATISSGGRSTYYPDSVKGRFTVSRDSAKNTLYLQMDSLRSEDTAIYYCAKLISPYWGQGTTLTVSS
VL: AIKMTQSPSSMYASLGERVIITCKASQDINSYLTWFQQKPGKSPKTLIYLTNRLMDGVPSRFSGSGSGQEFLLTISGLEHEDMGIYYCLQYVDFPYTFGGGTKLEIK
notes: also called chimeric BB7
B2: cDH001 chimeric antibody (murine DH2 variable regions) (antibody, human IgG1, V domains shown)
VH: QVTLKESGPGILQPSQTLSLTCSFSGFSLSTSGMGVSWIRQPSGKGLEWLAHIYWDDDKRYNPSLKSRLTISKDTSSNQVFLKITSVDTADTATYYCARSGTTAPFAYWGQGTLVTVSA
VL: QIVLTQSPAIMSASPGEKVTMTCSASSSVSYMYWYQQKPGSSPRLLIYDTSNLASGVPVRFSGSGSGTSYSLTISRMEAEDAATFYCQQWSSSPLTFGAGTKLELK

Experiments:
[1] = molecular target: T1, human transglutaminase type 2 (TG2); assay: ELISA on immobilised human TG2; r2 0.9682; EC50 95% confidence range 0.03611 to 0.06410 [continued), panel B]
Method: (§1) Antibody binding to human and cynomolgus monkey TG2 was determined in an ELISA assay. Clear polystyrene "Maxisorp" 96-well plates (Nunc) were coated with 50 ng purified human or cynomogulus monkey TG2 in 50 µl 0.05 M carbonate-bicarbonate buffer pH 9.6 at 4° C. overnight. Control wells were coated with 50 µl 100 µg/ml bovine serum albumin (BSA). Plates were washed 3× with 300 µl phosphate-buffered saline pH7.4 (PBS) containing 0.1% Tween 20 (PBST) and blocked with 300 µl 3% w/v Marvel skimmed milk in PBS for 1 hour at room temperature. After 3× wash with PBST, 50 µl protein-A purified chimeric or humanised anti-TG2 antibodies or human IgG1 kappa […] control antibody or CUB7402 (Abcam) were serially diluted 4-fold from a top concentration of 50 nM in PBS, and added to the plate in duplicate. […] After 3× washes with PBST, the plates were developed with 50 µl TMB substrate (Sigma) for 5 min at room temperature before stopping the reaction with 25 µl 0.5M H2SO4 and reading absorbance at 450 nm in a microtiter plate reader (BioTek EL808). Dose response curves were analysed and EC50 values and other statistical parameters determined using a 4-parameter logistical fit of the data (GraphPad Prism).

[2] = molecular target: T1, human transglutaminase type 2 (TG2); assay: cell-based or functional assay
cynomolgus monkey TG2 [3] = molecular target: T2, cynomolgus monkey TG2; assay: ELISA on immobilised cynomolgus monkey TG2; r2 0.9383; EC50 95% confidence range 0.03303 to 0.08079 [panel B]
Method: as §1

cynomolgus monkey TG2 [4] = molecular target: T2, cynomolgus monkey TG2; assay: ELISA on immobilised cynomolgus monkey TG2; r2 0.9986; EC50 95% confidence range 0.6682 to 0.8162 [panel A]
Method: as §1

| EC50 [1] [nM] | IC50 of enzymatic inhibition, dansylated lysine incorporation into N,N-dimethylated casein [panel B] [2] [nM] | EC50 (cynomolgus monkey TG2 [3]) [nM] | EC50 (cynomolgus monkey TG2 [4]) [nM] | Binder |
| --- | --- | --- | --- | --- |
| 0.0481 | 0.925 | 0.0517 | – | B1 |
| – | – | – | 0.739 | B2 |
